Assay results published in patent US20250297018A1, “IL-18BP ANTAGONIST ANTIBODIES AND THEIR USE IN MONOTHERAPY AND COMBINATION THERAPY IN THE TREATMENT OF CANCER” (Compugen Ltd., priority 2022, published 2025).

Legend:
B16/Db-hmgp100 melanoma = assay: Syngeneic B16/Db-hmgp100 mouse tumor model; type: in vivo; settings: anti-PVRIG combination study, vs isotype control mAbs
Method: B16/Db-hmgp100 cells were kindly provided by Dr. Hanada et al. (HHS agency) and were licensed from NIH. B16/Db-hmgp100 cells were generated by double transduction of B16F10 with H-2 Db and a retrovirus that encodes chimeric mouse gp100 that is comprised of the human gp10025-33 and the rest of mouse gp100. Cells were cultured in RPMI 1640 (Biological Industries, 01-100-1A) with 10% FBS (Biological Industries, 04-127-1A), and 100 μg/mL penicillin/streptomycin (Biological Industries, 03-031-1B), 1% Glutamax (Life technologies, 35050-038, 1% Sodium pyruvate (Biological Industries, 03-042-1B), 0.01% 2-mercaptoethanol (Life technologies, 31350-010, 10 μg/ml Blasticidin (InvivoGen, ant-bl-05). 1×10^5 B16/Db-hmgp100 cells subcutaneously into the back right flank of mice. […]
At day 4 post tumor inoculation mice were treated with mAbs (as detailed below) injected on day 4, 7, 11, 14, 18 and 21 post inoculation. Tumor growth was measured with caliper every 2-3 days. […]
Two-way ANOVA with repeated measures, followed by two-way ANOVA with repeated measures for selected pairs of groups using JMP (Statistical Discoveries™) software. Analyses of tumor growth measurements were performed by comparing tumor volumes measured on the last day on which all study animals were alive. Statistical differences in percentage of mice tumor free were determined by a Log Rank Mantel-Cox test. […]

[1] = MC38ova tumor-bearing mice treated with anti-mIL18BP or engineered mIL-18: weight, serum cytokines, spleen; type: in vivo, mouse
Method: Experiments were performed in C57Bl/6 (female, 6-8 wk, Envigo). Mice were anesthetized with 10% Ketamine and 10% Xylazine mixture injected intraperitoneal. Next, mice were inoculated with MC38ova cells (1.2×10^6) subcutaneously to the right flank in 50 μl/mice.
Spleens were harvested from mice 24 hours after the 4th treatment and weighed. For IL15 experiments, mice were treated with a single dose of 0.5 μg, 1.5 μg of IL15, or with a mix of 0.5 μg IL15 and 2.33 μg IL15R.

IL18-BP = target: T1, IL18-BP (Mus musculus, UniProt Q9Z0M9); settings: cited from earlier work
T1 sequence (Q9Z0M9 29-193): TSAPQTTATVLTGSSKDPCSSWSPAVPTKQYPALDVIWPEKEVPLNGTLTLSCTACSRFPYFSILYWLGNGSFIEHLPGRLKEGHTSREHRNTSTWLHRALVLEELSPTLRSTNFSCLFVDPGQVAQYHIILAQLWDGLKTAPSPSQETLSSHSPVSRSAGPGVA

B1: BOJ-5G4-F4: Anti PVRIG mAb 407 mAb mouse IgG1 (antibody, V domains shown)
VH: QVQLQQSGAELAKPGSSVMISCKASGYTFTNYAVHWIKQTTGQALEWTGYIAPGSGVTKYNEKFKGKATLTVDKSSTTAYMQLSSLTPVDTAVYYCASGTTRFAYWGQGTLVTVSS
VL: DIVLTQSPALAVSLGQRATISCRASQSVSLSSYNLMQWYQQKPGQEPKILIYDASNLPSGIPARFSGSGSGTDFTLTIDPVQADDIATYYCQQSKDDPLTFGSGTKLEIK
B16/Db-hmgp100 melanoma
  Tumor growth: comparable tumor growth to mice treated with isotype control mAbs

B2: Engineered IL-18: engineered IL-18, sequence from US 20190070262A1, listed therein as mCS2 (SEQ ID NO: 61) (protein)
chain: HFGRLHCTTAVIRNINDQVLFVDKRQPVFEDMTDIDQSASEPQTRLIIYAYGDSRARGKAVTLSVKDSKMSTLSCKNKIISFEEMDPPENIDDIQSDLIFFQKRVPGHNKMEFESSLYEGHFLACQKEDDAFKLILKKKDENGDKSVMFTLTNLHQSHHHHHH
[1]; 4 hours after the 4th treatment, 0.32 mg/kg SC
  Serum levels of IFNg, TNFa, MCP1 and IL6: elevated serum levels of IFNg, TNFa, MCP1 and IL6
[1]; 4 hours after the 4th treatment, detection identifies also engineered IL18
  Serum levels of IL18: very high serum levels of IL18
[1]; 24 hours after the 4th treatment
  Serum levels of IFNg: elevated serum levels of IFNg
[1]; 24 hours after the 4th treatment, average
  Spleen enlargement compared to control: 4.9 folds
[1]; by 24 hours after the 4th treatment
  Serum levels of IL18: returned to baseline
IL18-BP
  Binding to IL18-BP: shown not to bind IL18-BP
